Residue numbers refer to the chain shown, from its start. In names and notes the source's numbering stands. Read-outs that look alike come from different tables or passages of the source.
What was measured:
[1] = target: T1, human CTLA-4 on 58 α-β-CTLA-4/CD3 ζ cells (human; mouse (mCD3ζ)); assay: flow cytometry (GMFI), full-length IgG on 58 α-β-CTLA-4/CD3 ζ cells, pH 6.6
T1 construct: also called 58αβ-hCTLA4/mCD3ζ cells; 58αβ-CTLA4/mCD3ζ cells

[2] = target: T1, human CTLA-4 on 58 α-β-CTLA-4/CD3 ζ …; assay: flow cytometry (GMFI), full-length IgG on 58 α-β-CTLA-4/CD3 ζ cells, pH 7.2
[3] = target: T1, human CTLA-4 on 58 α-β-CTLA-4/CD3 ζ …; assay: flow cytometry (GMFI), full-length IgG on 58 α-β-CTLA-4/CD3 ζ cells, pH 6.3
[4] = target: T1, human CTLA-4 on 58 α-β-CTLA-4/CD3 ζ …; assay: cell-based or functional assay
[5] = target: T1, human CTLA-4 on 58 α-β-CTLA-4/CD3 ζ …; assay: cell-based or functional assay; remark: listed apart in the source
[6] = target: T1, human CTLA-4 on 58 α-β-CTLA-4/CD3 ζ …; assay: flow cytometry, non-fucosylated IgG1 on 58αβ-CTLA4/mCD3ζ cells, pH 6.7
Description: (§1) Antibodies were titrated from 100 μg/mL at a 1:4 dilution across 12 points in pH-specific buffers and incubated for 30-60 minutes. Buffers contained HBSS, 2% FBS^HI, 0.02% sodium azide, 2 mM EDTA, and sodium phosphate buffer (pH 5.4). Sodium phosphate buffer was added until desired pH was reached (7.2, 6.7, 6.2). Approximately 3e5 cells/well were tested for each cell line. […] Detection was done with a monovalent anti-hKappa secondary nanobody conjugated to Alexa647 and used at a dilution of 1:2000. Cells were fixed with BD Fix Solution I for 30 minutes prior to resuspension in pH-specific buffers and reading on the cytometer (BD Fortessa).

[7] = target: T1, human CTLA-4 on 58 α-β-CTLA-4/CD3 ζ …; assay: flow cytometry, non-fucosylated IgG1 on 58αβ-CTLA4/mCD3ζ cells, pH 6.2
Description: as §1

[8] = target: T1, human CTLA-4 on 58 α-β-CTLA-4/CD3 ζ …; assay: cell-based or functional assay; remark: listed apart in the source
[9] = target: T1, human CTLA-4 on 58 α-β-CTLA-4/CD3 ζ …; assay: flow cytometry, non-fucosylated IgG1 on 58αβ-CTLA4/mCD3ζ cells, pH 7.2
Description: as §1

monomeric human CTLA-4 [10] = target: T2, monomeric human CTLA-4 (human, UniProt P16410 36-161, limits assumed); assay: SPR, captured Fab, pH 6.0
T2 construct: Soluble monomeric analyte in SPR; also called huCTLA-4
T2 sequence: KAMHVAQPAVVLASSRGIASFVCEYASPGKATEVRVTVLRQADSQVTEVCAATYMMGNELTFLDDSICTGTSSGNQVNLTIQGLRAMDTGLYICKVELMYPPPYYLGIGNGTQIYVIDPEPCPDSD
Description: (§2) Unless otherwise indicated, experiments were performed with a BIACORE® SPR surface plasmon resonance spectrometer (Biacore AB, Uppsala, Sweden). Antibodies were tested as monovalent Fab fragments to simplify analysis.
(§3) Monomeric human CTLA-4 was flowed as analyte with up to 2 μM top concentration. Between cycles, the capture surface was regenerated with 75 mM phosphoric acid. Experiments were run on a BIACORE® T200 instrument at 37° C. Running buffers were HEPES buffered saline for pH 7.4 experiments and Bis-Tris buffered saline for lower pH experiments. […] Double referenced sensorgrams were fitted to a 1:1 Langmuir binding model with mass transport to determine equilibrium dissociation constants (KD), as well as association (kₐ) and dissociation (kd) rate constants where appropriate.

monomeric human CTLA-4 [11] = target: T2, monomeric human CTLA-4; assay: SPR, captured Fab, pH 6.0 vs 7.4
Description: as §2, §3

monomeric human CTLA-4 [12] = target: T2, monomeric human CTLA-4; assay: SPR, captured Fab, pH 7.4
Description: (§4) Binding of selected variants to human CTLA-4 was determined essentially as described in Example 3. […] Nomenclature and sequences for these antibodies is provided at Tables 6 and 7, and in the sequence listing as summarized at Table 8.
as §3

monomeric human CTLA-4 [13] = target: T2, monomeric human CTLA-4; assay: SPR, captured Fab, pH 6.0 vs 7.4; remark: listed apart in the source
Description: as §4, §3

monomeric human CTLA-4 [14] = target: T2, monomeric human CTLA-4; assay: SPR, captured Fab, pH 6.0 and pH 7.4
monomeric human CTLA-4 [15] = target: T2, monomeric human CTLA-4; assay: SPR, captured Fab, pH 7.4; remark: listed apart in the source
Description: as §2, §3

monomeric human CTLA-4 [16] = target: T2, monomeric human CTLA-4; assay: SPR, captured Fab, pH 6.0; remark: listed apart in the source
Description: as §4, §3

monomeric cyno CTLA-4 [17] = target: T3, monomeric cyno CTLA-4 (cynomolgus macaque (Macaca fascicularis), UniProt G7PL88 36-161); assay: SPR, Fab, monomeric cyno CTLA-4 as analyte; KD (M, log axis 10^-9 to 10^-5) plotted against pH
T3 construct: also called CTLA-4 from the cynomolgus macaque Macaca fascicularis
T3 sequence: T2 sequence with S14N, I18T, L106M
Description: (§5) The pH dependence of binding of selected antibodies of the present invention to human CTLA-4 and cyno CTLA-4 was measured by surface plasmon resonance (SPR) spectroscopy, essentially as described in Example 3. Briefly, antibodies were studied as monovalent Fab fragments. Anti-human kappa polyclonal capture antibody (Southern Biotech, Ala. USA) was immobilized on a ethylenediamine-blocked CM4 sensor chip in a Biacore T200 surface plasmon resonance system. Fab fragments of selected antibodies of the present invention were then captured on one flow cell each. […] Running buffer was 20 mM BisTris, 150 mM NaCl, 0.05% Tween-20, 1 g/L BSA, at a pH ranging from 5.5 to 7.4 in 0.1-0.2 pH unit intervals (12 total). The surface was regenerated with 1/200 H₃PO₄ between cycles. […] Where required, the Rₘₐₓ was fixed by calculating expected binding based on capture level and apparent activity from other fits for the same Fab.

monomeric human CTLA-4 [18] = target: T2, monomeric human CTLA-4; assay: SPR, pH 6.0 and pH 7.5 (FIG. 6)
Description: as §2, §3

monomeric human CTLA-4 [19] = target: T2, monomeric human CTLA-4; assay: SPR, captured Fab, pH 7.4; pH 7.4
Description: as §2, §3

[20] = target: T1, human CTLA-4 on 58 α-β-CTLA-4/CD3 ζ …; assay: flow cytometry (APC mean FI), Fab on 58αβ-CTLA4/mCD3ζ cells, pH 6.2
Description: as §1
(§6) The experimental protocol was the same as used to obtain the data of FIGS. 16A-C.

monomeric cyno CTLA-4 [21] = target: T3, monomeric cyno CTLA-4; assay: SPR, Fab, monomeric cyno CTLA-4 as analyte; koff (s^-1, linear axis 0 to 0.3) plotted against pH
Description: as §5

[22] = target: T1, human CTLA-4 on 58 α-β-CTLA-4/CD3 ζ …; assay: flow cytometry (APC mean FI), Fab on 58αβ-CTLA4/mCD3ζ cells, pH 6.7
Description: as §1, §6

B1: ipi.71 (full-length IgG) (antibody, V domains shown)
VH: QVQLVESGGGVVQPGRSLRLSCAASGFTFSHYTMHWVRQAPGKGLEWVTFISYDGHNKYYADSVKGRFTISRDNSKNTLYLQMNSLRAEDTAIYYCARTGWLGPFDYWGQGTLVTVSS
VL: not shown
notes: Full-length bivalent IgG (human IgG1); heavy chain entry is without the C-terminal lysine
- EC50 (read off the curve) [1]: ~1 nM
- EC50 (read off the curve) [2]: ~1 nM
- EC50 (read off the curve) [3]: ~1 nM

B2: ipi.95 (full-length IgG) (antibody, V domains shown)
VH: B1 VH
VL: EIVLTQSPGTLSLSPGERATLSCRASQEVGDSELAWYQQKPGQAPRLLIYGAFSRATGIPDRFSGSGSGTDFTLTISRLEPEDFAVYYCQQYGSSPWTFGQGTKVEIKR
notes: as for B1
- EC50 (read off the curve) [1]: ~1 nM
- EC50 (read off the curve) [3]: ~1 nM

B3: ipi.100, non-fucosylated IgG1 (antibody, V domains shown)
VH: B1 VH with H56N
VL: not shown
modifications: non-fucosylated N-linked glycan
notes: Non-fucosylated full-length human IgG1; also called Ipi.100 IgG1-NF
- IC50 (read off the curve), mIL-2 secretion, 58αβ-hCTLA/mCD3ζ:rhB7-1 blocking assay, 18 h, pH 6.8 [4]: ~1 nM
- IC50 (read off the curve), mIL-2 secretion, 58αβ-hCTLA/mCD3ζ:rhB7-1 blocking assay, 18 h, pH 7.2 [5]: ~1 nM
- Cmax (MFI) [6]: 126000 MFI
- EC50 [6]: 2.85 nM
- Cmax (MFI) [7]: 122000 MFI
- EC50 [7]: 2.94 nM
- IC50 (read off the curve), mIL-2 secretion, 58αβ-hCTLA/mCD3ζ:rhB7-1 blocking assay, 18 h, pH 7.0 [8]: ~1 nM
- Cmax (MFI) [9]: 125000 MFI
- EC50 [9]: 2.8 nM

B4: ipi.101, non-fucosylated IgG1 (antibody, V domains shown)
VH: B1 VH
VL: not shown
modifications: non-fucosylated N-linked glycan
notes: Non-fucosylated full-length human IgG1; also called Ipi.101 IgG1-NF
- IC50 (read off the curve), mIL-2 secretion, 58αβ-hCTLA/mCD3ζ:rhB7-1 blocking assay, 18 h, pH 6.8 [4]: ~0.7 nM
- IC50 (read off the curve), mIL-2 secretion, 58αβ-hCTLA/mCD3ζ:rhB7-1 blocking assay, 18 h, pH 7.2 [5]: ~1 nM
- Cmax (MFI) [6]: 126000 MFI
- EC50 [6]: 4.06 nM
- Cmax (MFI) [7]: 121000 MFI
- EC50 [7]: 3.52 nM
- IC50 (read off the curve), mIL-2 secretion, 58αβ-hCTLA/mCD3ζ:rhB7-1 blocking assay, 18 h, pH 7.0 [8]: ~1 nM
- Cmax (MFI) [9]: 124000 MFI
- EC50 [9]: 3.81 nM

B5: ipi.3 Fab (Fab, V domains shown)
VH: B1 VH with H31S, H56N, T99H
VL: not shown
notes: Tested as monovalent Fab; also called HCDR3 T95H (Kabat)
- Kd (monomeric human CTLA-4 [10]): 180 nM
- koff (monomeric human CTLA-4 [10]): 0.15 s⁻¹
- kon (monomeric human CTLA-4 [10]): 840000 M⁻¹ s⁻¹
- KD 7.4/6 (APBP) (monomeric human CTLA-4 [11]): 0.9
- Kd (monomeric human CTLA-4 [12]): 97 nM
- KD 7.4/6 (APBP) (monomeric human CTLA-4 [13]): 1.3
- fold decrease of affinity (increased KD) vs ipilimumab (monomeric human CTLA-4 [14]): ~4 fold
- Kd (monomeric human CTLA-4 [15]): 200 nM
- koff (monomeric human CTLA-4 [15]): 0.094 s⁻¹
- kon (monomeric human CTLA-4 [15]): 480000 M⁻¹ s⁻¹
- Kd (monomeric human CTLA-4 [16]): 76 nM
- kon (monomeric human CTLA-4 [16]): 1.1e+06 M⁻¹ s⁻¹
- t1/2 (monomeric human CTLA-4 [16]): 9 s

B6: ipi.64 Fab (Fab, V domains shown)
VH: B1 VH with H56N
VL: not shown
notes: Tested as monovalent Fab; also called IPI.64 mutant fab; LCDR1 S28E/S31D and HCDR1 S31H
- binding result (monomeric cyno CTLA-4 [17]): binds
- Kd (monomeric human CTLA-4 [12]): 37 nM
- kon (monomeric human CTLA-4 [12]): 780000 M⁻¹ s⁻¹
- t1/2 (monomeric human CTLA-4 [12]): 25 s
- KD 7.4/6 (APBP) (monomeric human CTLA-4 [13]): 13
- ka 6/7.4 (monomeric human CTLA-4 [13]): 1.8
- t1/2 6/7.4 (monomeric human CTLA-4 [13]): 7.6
- CAPBP (ratio of KD normalized to ipilimumab) (monomeric human CTLA-4 [18]): 27.2
- Kd (monomeric human CTLA-4 [16]): 2.7 nM
- kon (monomeric human CTLA-4 [16]): 1.4e+06 M⁻¹ s⁻¹
- t1/2 (monomeric human CTLA-4 [16]): 182 s

B7: ipi.90 Fab (Fab, V domains shown)
VH: B1 VH with H56N, T99H
VL: B2 VL
notes: Tested as monovalent Fab
- KD 7.4/6 (APBP) (monomeric human CTLA-4 [13]): > 28
- Kd (monomeric human CTLA-4 [19]): > 1000 nM
- Kd (monomeric human CTLA-4 [16]): 36 nM
- kon (monomeric human CTLA-4 [16]): 1.9e+06 M⁻¹ s⁻¹
- t1/2 (monomeric human CTLA-4 [16]): 10 s

B8: ipi.100 Fab (Fab, V domains shown)
VH: B1 VH with H56N
VL: not shown
notes: Tested as monovalent Fab
- binding result (monomeric cyno CTLA-4 [17]): binds
- EC50 (read off the curve) [20]: ~0.1 µg/mL
- Kd (monomeric human CTLA-4 [12]): 46 nM
- kon (monomeric human CTLA-4 [12]): 460000 M⁻¹ s⁻¹
- t1/2 (monomeric human CTLA-4 [12]): 33 s
- KD 7.4/6 (APBP) (monomeric human CTLA-4 [13]): 17
- ka 6/7.4 (monomeric human CTLA-4 [13]): 2.1
- t1/2 6/7.4 (monomeric human CTLA-4 [13]): 8.8
- Kd (monomeric human CTLA-4 [16]): 2.5 nM
- kon (monomeric human CTLA-4 [16]): 940000 M⁻¹ s⁻¹
- t1/2 (monomeric human CTLA-4 [16]): 289 s

B9: ipi.106 Fab (Fab, V domains shown)
VH: B1 VH with T99H
VL: B2 VL with D31E
notes: Tested as monovalent Fab
- Kd (monomeric human CTLA-4 [12]): > 350 nM
- binding result (monomeric cyno CTLA-4 [21]): binds
- EC50 (read off the curve) [22]: ~3 µg/mL
- KD 7.4/6 (APBP) (monomeric human CTLA-4 [13]): > 20
- Kd (monomeric human CTLA-4 [16]): 18 nM
- kon (monomeric human CTLA-4 [16]): 1.2e+06 M⁻¹ s⁻¹
- t1/2 (monomeric human CTLA-4 [16]): 33 s

— US20220193237A1 (Bristol-Myers Squibb, published 2022)
